The text below walks through data of the DeepSol protein solubility set.

The nature of this data set: soluble on expression in E. coli; label from the status in PepcDB or PDB records.
As for “MNVMMQKVHGSENDFFLLDETQFERSLTAEEIEQLRIQLCSRETGLLAGADGLLLVGEGTHGTSNARMRVINSDGSEASMCGNGLRTVARYLAEKNQEKSFTVETMFADLKVRQAPNLAEEVATYQVEISPVSFEAVTIPMHLGVQTLIDEIVPALSNTIRFTAVAVPNPHLVAFVDHETLNGPEFERIATYVNNENPYFPEGINVSFVEILGKNQLFVRTYERGVGFTSACGTAMCASSLLYTLLKDGVFYEEITVKNTGGMVKTVVHETSDGSYWMELIGNATITHLIEGSLTDLLNGAFEKITITETNEQKHYQEFLQTLSQK”, the “soluble on expression in E. coli” value is given as “not soluble”.

Regarding “MRDNASLAHTQWNCKYHIVFVPKYRRQVIYGKIKKDIGQILRKLCEMKGVEIIEASLCPDHIHMLVSIPPKISVSSFMGYLKGKSSLMIFDRHANLKYKYGNRHFWCRGYYVDTVGRNRKAIEQYIRRQLQEDIASDQISLNEYIDPFTGERVNKSKK”, the “soluble on expression in E. coli” value is “soluble”.

Regarding “MGSDKIHHHHHHMKLKYVLYMAAALSLTGCNDSFLERGPQNLNDQSFWISVNDLKAYANAFYGLIPGGVSVLDDTDSDIQVPNDINSFLWGQYVVPTEGGVWQKSNWQNIRNINYFMTHYQSVQAAEADVNIYVAEMRFFRALEYFNKIQLLGDVPWLEVDLNVDSEELYGPKMKRNQVFQKIIEDLDFAIQWLPEAGSEEANRLNKDIARHVKARFCLNEGTHYKYHDELEYASEAEKWLQMAATESDKLITSGRYEIYNTGHPQEDYFNMYRIDDKSDLKEAVLYVDYKTNIREHNMAAAGREAGCGFSKSFVESFLCSDGLPISLSNKYLGDETMRKETANRDPRLKQLILTNDFPTNVTDDLKDSTFVVNEDEFITQHCFTGYRPIKGFNPIYSQALYMKSSFDGIAYRYAETLLINAEAKAELNTITNADLDRTVNQLRDRVGMPHLTVM”, the “soluble on expression in E. coli” value was “not soluble”.

As for “VTRKSLLERCMEMEKEGYTGCLLSGGMDSRLKVPLDKFKDEIKAIKEKTKLKINAHVGFVDESDLEWLKYIDVVSLDFVGDNEVIKRVYKIDKKVEDYLRVLDLLTENGIRVAPHITIGLDFGKVHWEFKAIDILVNYPIDVLVLDVLIPTPGTEMANVPKVPVDEAIRVVKYAREKFSGELSIGCMRPFGEWRVKFDREAILAGVDRI”, the “soluble on expression in E. coli” value was “not soluble”.

As for “MELLCPAGNLPALKAAIENGADAVYIGLKDDTNARHFAGLNFTEKKLQEAVSFVHQHRRKLHIAINTFAHPDGYARWQRAVDMAAQLGADALILADLAMLEYAAERYPHIERHVSVQASATNEEAINFYHRHFDVARVVLPRVLSIHQVKQLARVTPVPLEVFAFGSLCIMSEGRCYLSSYLTGESPNTIGACSPARFVRWQQTPQGLESRLNEVLIDRYQDGENAGYPTLCKGRYLVDGERYHALEEPTSLNTLELLPELMAANIASVKIEGRQRSPAYVSQVAKVWRQAIDRCKADPQNFVPQSAWMETLGSMSEGTQTTLGAYHRKWQ”, the “soluble on expression in E. coli” value is “soluble”.

On to “AQYEDGKQYTTLEKPVAGAPQVLEFFSFFCGHAYQFEEVLHISDNVKKKLPEGVKMTKYHVNFMGGDLGKDLTQAWAVAMALGVEDKVTVPLFEGVQKTQTIRSASDIRDVFINAGIKGEEYDAAWNSFVVKSLVAQQEKAAADVQLRGVPAMFVNGKYQLNPQGMDTSNMDVFVQQYADTVKYLSEKK”, for which the “soluble on expression in E. coli” value is reported as “soluble”.

In the case of “MAKKTLPAGVKSPPYIFSPIPFLGHAIAFGKSPIEFLENAYEKYGPVFSFTMVGKTFTYLLGSDAAALLFNSKNEDLNAEDVYSRLTTPVFGKGVAYDVPNPVFLEQKKMLKSGLNIAHFKQHVSIIEKETKEYFESWGESGEKNVFEALSELIILTASHCLHGKEIRSQLNEKVAQLYADLDGGFSHAAWLLPGWLPLPSFRRRDRAHREIKDIFYKAIQKRRQSQEKIDDILQTLLDATYKDGRPLTDDEVAGMLIGLLLAGQHTSSTTSAWMGFFLARDKTLQKKCYLEQKTVCGENLPPLTYDQLKDLNLLDRCIKETLRLRPPIMIMMRMARTPQTVAGYTIPPGHQVCVSPTVNQRLKDSWVERLDFNPDRYLQDNPASGEKFAYVPFGAGRHRCIGENFAYVQIKTIWSTMLRLYEFDLIDGYFPTVNYTTMIHTPENPVIRYKRRSTHHHHHH”, the “soluble on expression in E. coli” value is “soluble”.

Consider “MGSDKIHHHHHHMKWTTPADLKAQVRKLWDRGLLLASLAGGEALFPRRLTLKSPDSRGLSERFPEVREWIAQLCSAAGFYRIEWRSVNHRVLGANEIPAAIWIDTLEEALGLIGKRRAADQFATLVELTRKKQPELVPWLAKRPLRALELSEDWPRLLEIVTWVLKHPRPAIYLRQIDLPGVHTKFIEGHRGVLAELLDLVLPGEAIDATHTGIGGFCRRYGFLDKPLRVRFRVLDRNIRLPAVESDQDITLTQASFASLDLPASKVFITENEINFLAFPDVPDAMVIFGAGYGFDNLAAAPWLHQRGIYYWGDIDTHGFAILNQLRGFFPHAVSFLMDLQTLLAHRSLWGVEKQPETGTLARLNSEESALYDQLRRNHWGERVRLEQERIGFGFLHDVLRRL”, for which the “soluble on expression in E. coli” value is reported as “not soluble”.

With “MSLKQIVGHKLLNDVIRPLKKGDGRSAWNVLIVDTLAMRMLSSCCKMHNIMEEGITIVEDLNKRREPLPTLEAIYLIAPTAESIDKLIQDYCARNLYKCAHVFFTEACSDQLFSTLSKSAAARFIKTLKEINIAFTPYESQVFNLDSPDTFFLYYNAQKQGGLTSNLERIAEQIATVCATLGEYPSLRYRADFERNVELGHLVEQKLDAYKADDPSMGEGADKARSQLIIIDRGYDAITPLLHELTLQAMCYDLLGIENDVYKYETGGSDENLEKEVLLDENDDLWVEMRHKHIAVVSQEVTKNLKKFSESKGNKGTMDSKSIKDLSMLIKRMPQHKKELNKFSTHISLAEECMKQYQQGVDKLCKVEQDLSTGIDAEGERVRDAMKLMVPLLIDPAVRCEDRLRLILLYILSKNGITDENLNKLLQHANISMADKETITNAAYLGLNIVTDTGRKKTWTPTKKERPHEQVYQSSRWVPVIKDIIEDAIDERLDTKHFPFLAGRQVNQGYRAPASARYGQWHKERGQQSNYRSGPRLIIYIIGGVTFSEMRACYEVTAARKPWEVVIGSDRIITPDKFLTNLRDLNKPRDI”, the “soluble on expression in E. coli” value was “not soluble”.

Regarding “MQYKDENGVNEPSRRRLLKVIGALALAGSCPVAHAQKTQSAPGTLSPDARNEKQPFYGEHQAGILTPQQAAMMLVAFDVLASDKADLERLFRLLTQRFAFLTQGGAAPETPNPRLPPLDSGILGGYIAPDNLTITLSVGHSLFDERFGLAPQMPKKLQKMTRFPNDSLDAALCHGDVLLQICANTQDTVIHALRDIIKHTPDLLSVRWKREGFISDHAARSKGKETPINLLGFKDGTANPDSQNDKLMQKVVWVTADQQEPAWTIGGSYQAVRLIQFRVEFWDRTPLKEQQTIFGRDKQTGAPLGMQHEHDVPDYASDPEGKVIALDSHIRLANPRTAESESSLMLRRGYSYSLGVTNSGQLDMGLLFVCYQHDLEKGFLTVQKRLNGEALEEYVKPIGGGYFFALPGVKDANDYFGSALLRV”, the “soluble on expression in E. coli” value is reported as “soluble”.

Take “MGSSHHHHHHSSGRENLYFQGHMSKPIVMERGVKYRDADKMALIPVKNVATEREALLRKPEWMKIKLPADSTRIQGIKAAMRKNGLHSVCEEASCPNLAECFNHGTATFMILGAICTRRCPFCDVAHGRPVAPDANEPVKLAQTIADMALRYVVITSVDRDDLRDGGAQHFADCITAIREKSPQIKIETLVPDFRGRMDRALDILTATPPDVFNHNLENVPRIYRQVRPGADYNWSLKLLERFKEAHPEIPTKSGLMVGLGETNEEIIEVMRDLRRHGVTMLTLGQYLQPSRHHLPVQRYVSPDEFDEMKAEALAMGFTHAACGPFVRSSYHADLQAKGMEVK”: the “soluble on expression in E. coli” value is on record as “soluble”.

With “MTLSSAGGSRSHRHNGGHSERDVEIRILKDKVRSLTKEKISLQKELEYYKNEITKLLSPPYIEAVVLEVIDDNRVVVKSSTGPNLIVNVAAGVDARSLKPGAIVALNNRGSTIVDVLPGRYDPLVKAMEVEERPKVFFKDVGGLEEQIREIYEAVVLPIKNPHLFRELGIDPPKGVLLHGPPGTGKTLLAKAVAGETEATFIRVVGSELVNKFIGEGARLVREIFRLAREKAPSILFIDEIDAIASKRVDIGTSGDREVQRTMLQLLAELDGFDPLDNVKVIAATNRLDLIDPAVLRPGRFDRIIEVPLPSLRGRLEILGIHTRKAKMAPDVDLEAIAKLTEGFSGADLKAVVVEAGYNAIRRGSRVITMDDMIKAVEKVKAALDKRGGGDPFIRAQQKSGDDTIATVI”, the “soluble on expression in E. coli” value was “soluble”.

For the sequence “MENVEKRLIQLFTTYLNKAKHHMQGGSDMPNELVIGLHCRGEFESHRSWMQPRVQRGLEERMLFSSHKRAQIYKEAATSSLVAASSAPGEVREG”, the “soluble on expression in E. coli” value is on record as “soluble”.

As to “MRILPQIMAAIVLASPALSQCGGGFSSFVDGLKAEAVSMGHDAALVDRFFQGAAQDAKVLKADRAQGVFQKPFVEFSRRLISQNRLDTGKAMGRKYDAVFDRIEAEYGVSRGVLLAFWAFETDFGGFQGDFNTRNALITLAHDCRRPELFRPQIFAAIELYSHGDFDPARTTGAWAGEIGMVQMLPRDILENGVDGDGDGHVTLKTSAPDALMSGARMLSHLGWRAGEPWLQEVTLPAQMDWSLSGPGKPRSAGEWQAMGVRPRAGDLADLPASLILPQGHKGPAFLAYPNFDVYFEWNQSFVYVLTAAYFGTRLEGGQVYDAGNPAPGLDGAGMKALQQKLQARGHDVGKIDGILGAGTRAAVQAEQARLGLPADAWPTAELLNRL”, the “soluble on expression in E. coli” value is “not soluble”.

On to “MREYRITAEEGHPRIDVFLAGRPEIGLSRSRIQALIDEGQVTLNGAMPKARQAVNPGDVIVVRVPDPEPMELVPEDIPLDIVYEDEDILVVNKQRGLVVHPAAGHWTGTLVHALLDKVDDLEGIGGELRPGIVHRLDKDTTGLLVVAKSERAMASLQEQIRDHMVQRVYWALVHGNSMPDTGRIEAPIGRHPRDRKRMAVNPKTGRDAVTYFRVLERYRGYALLECRLETGRTHQIRVHLSFIGHPVVGDPLYGPRKPHLGMPPQALHARQLSFRHPASGEWMEFTVDPPADMMAVVQRLREEA”, for which the “soluble on expression in E. coli” value was “soluble”.

For the sequence “SAVAVEGARRKERILCLFDVDGTLTPARQKIDPETIQNHLGEELLQDLINFCLSYMALLRLPKKRGTFIEFRNGMLNVSPIGRSCTLEERIEFSELDKKEKIREKFVEALKTEFAGKGLRFSRGGMISFDVFPEGWDKRYCLDSLDEDSFDIIHFFGNETSPGGNDFEIYADPRTVGHSVVSPQDTVQRCRELFFPETAHEA”, the “soluble on expression in E. coli” value is listed as “soluble”.

With “MGSDKIHHHHHHMNFIEQISENNQFPIIFVGSGITQRYFENAPTWEKLLKDIWLELFDEESYYAKAFELRERFENNDFDIYTNLASLLEKEVSKAFINGNIQVDNLDLKTAYELNISPFKQLVANRFSNLKIREEKIEEIKQFSQMLSKARIIITTNYDNFIEECLKTINVSVKINVGNKGLFLKSSDYGELYKIHGTVDDASTITITKEDYEKNVTKSALINAKILSNLVESPILFLGYSLTDENIRKLLTDFAENSPFDISESAQKIGVVEYLPDSESIETVVSSLPDLSVYYSCLKTDNFTNIYRLISKINQGFLPSEIAKYENVFRKIIEVKGESKDLKTVLTSYEDLANLTEDEIRSKNIVVAFGDERYIYKFPDFKEYVRSYFLDKETIPQEIVIRFIATQPVASHLPIKKYMFAMSEYISKDSNKYTENIKKRLSKEEELSLDDFTSSIGVPLLHSKTLERQTEIVGILEADVPDNVRYNFIATHIKNFPKEELFLLVEKIIDEGIFETSRRRFLKAFDLLHY”, the “soluble on expression in E. coli” value was “not soluble”.
